What is called Kd is a measure of binding affinity in units of concentration. Low values mean higher affinity, high ones lower affinity. By koff is commonly meant the rate constant with which the complex falls apart. As usually defined, the kon is the rate constant with which the complex forms. In general, EC50 refers to the midpoint of the concentration-response curve. Low readings indicate higher potency in that assay, high ones lower potency in that assay. As usually defined, the EC50 (read off the curve) is the concentration needed to bring the measured effect to its halfway point. Low readings indicate greater potency, high ones weaker potency. As usually defined, the % Inhibition is the percentage by which the read-out fell short of the control.

Residue numbers refer to the chain shown, from its start. Read-outs that look alike come from different tables or passages of the source. A value given as a limit tells only on which side of the number the result lay.

The target in assay [1] is T1, human UCN1 peptide (human, UniProt P55089 83-122, not fully specified; biotin at N- or C-terminus in the ELISA).
T1 peptide (looked up): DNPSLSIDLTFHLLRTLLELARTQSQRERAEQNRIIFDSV
The experiment in a line: cell-based or functional assay.

Assay [2] addresses T2, human UCN2 peptide (human, UniProt Q96RP3 72-109, limits assumed, not fully specified; biotin at N- or C-terminus in the ELISA).
T2 construct: also called hUCN2; hUCN2 (NT Biotin)
T2 peptide (looked up): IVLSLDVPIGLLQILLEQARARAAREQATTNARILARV
The assay can be described thus: ELISA, biotinylated hUCN2 on streptavidin plates. The protocol: (§1) Streptavidin (Thermo, Cat: 21125) was diluted in PBS with a concentration of 2 μg/mL. 100 μL of diluted streptavidin was added per well to ELISA microplates, and the plates were incubated overnight at 4° C. Plates were blocked with ELISA blocking solution (containing 2% w/v BSA, 0.05% (v/v) Tween-20, pH 7.4 PBS buffer) at 37° C. for 1 hour, and then incubated with either 1 μg/mL hUCN1 (NT Biotin), hUCN1 (CT Biotin), hUCN2 (NT Biotin), hUCN2 (CT Biotin), hUCN3 (NT Biotin), or hUCN3 (CT Biotin) for 1 hour at 37° C. […] 100 μl of TMB Substrate (Biopanda, Cat: TMB-S-003) was added, and the plates were incubated at room temperature for 15 minutes. 100 μL of ELISA stopping solution (Solarbio, Cat #: C1058) was then added to terminate the reaction, and the OD450 nm was determined by an ELISA plate reader (Molecular Devices, Spectra max 384 plus).
For orientation: In an ELISA, binding on a coated surface is turned into a signal by an enzyme label.

Assay [3] addresses T3, human UCN3 peptide (human, UniProt Q969E3 120-157, not fully specified; biotin at N- or C-terminus in the ELISA).
T3 construct: also called hUCN3; hUCN3 (NT Biotin)
T3 peptide (looked up): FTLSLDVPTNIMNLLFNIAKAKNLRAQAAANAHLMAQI
The experiment in a line: ELISA, biotinylated hUCN3 on streptavidin plates. Here is the method:
as §1

For assay [4], the target named is T4, biotinylated CRH (human and mouse, not fully specified; biotinylated, position not stated).
T4 construct: also called Biotin-CRH; biotin-labeled CRH
T4 peptide: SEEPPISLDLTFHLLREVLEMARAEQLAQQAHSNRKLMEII
The assay can be described thus: Octet BLI, biotinylated CRH on SA sensor. A general note: BLI is a label-free optical method that tracks binding on a fibre tip over time.

Assay [5] deals with T5, N-Terminal CRH (human and mouse, C-terminal K-Biotin).
T5 construct: also called N-Ter-CRH (CT-Bion)
T5 peptide: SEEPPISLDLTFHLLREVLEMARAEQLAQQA
The assay can be described thus: ELISA, biotin peptide on streptavidin plate. The procedure, abridged: (§2)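 Read-out is absorbance at 450 nm after a stopped TMB reaction of 15 minutes at room temperature. Wells carried streptavidin, coated from a 2 μg/ml PBS solution overnight at 4° C.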

For assay [6], the target named is T6, CRH (CT Biotin) (human and mouse, C-terminal K-Biotin).
T6 construct: also called Peptide 4 (CRH-Biotin)
T6 peptide: T4 peptide
The assay can be described thus: ELISA on streptavidin-captured CRH (CT biotin), OD450. The protocol: (§3) Streptavidin (Thermo, Cat: 21125) was diluted in PBS to a concentration of 2 μg/ml. 100 μl of diluted streptavidin was added per well to ELISA microplates, and the plates were incubated overnight at 4° C. […] 100 μL of 3,3′,5,5′-tetramethylbenzidine (TMB) substrate (Biopanda, Cat: TMB-S-003) was added, and the plates were incubated at room temperature for 15 minutes. 100 μL of ELISA stopping solution (Solarbio, Cat #: C1058) was added to terminate the reaction, and the optical density at 450 nm (OD450 nm) was determined by an ELISA plate reader (Molecular Devices, Spectra max 384 plus).

Assay [7] addresses T7, CRH (NT Biotin) (human and mouse, not fully specified; biotin at the N-terminus).
T7 peptide: T4 peptide
The assay can be described thus: ELISA on streptavidin-captured CRH (NT biotin), OD450. The protocol: as §3

Assay [8] deals with T8, hUCN1 (NT Biotin) (human, UniProt P55089 83-122, biotin at the N-terminus).
T8 construct: also called human UCN1 (NT biotin)
T8 peptide (looked up): T1 peptide (looked up)
The experiment in a line: ELISA on streptavidin-captured hUCN1 (NT biotin), OD450. The protocol:
as §3

The target in assay [9] is T2, human UCN2 peptide. The assay can be described thus: ELISA on streptavidin-captured hUCN2 (NT biotin) and hUCN2 (CT biotin), mAb at 100 nM and 10 nM, OD450. The protocol:
as §1

For assay [10], the target named is T3, human UCN3 peptide. The experiment in a line: ELISA on streptavidin-captured hUCN3 (NT biotin) and hUCN3 (CT biotin), mAb at 100 nM and 10 nM, OD450. The protocol: as §1
Assay [11] has as its target T9, corticotropin-releasing hormone (CRH) peptide (human and mouse, not fully specified).
T9 peptide: T4 peptide
The assay can be described thus: cell-based or functional assay.

Assay [12] addresses T7, CRH (NT Biotin). The experiment in a line: ELISA, biotin peptide on streptavidin plate. The method, boiled down:
as §2

The target of assay [13] is T6, CRH (CT Biotin). The experiment in a line: ELISA, biotin peptide on streptavidin plate. The procedure, abridged: as §2
Assay [14] addresses T8, hUCN1 (NT Biotin). The experiment in a line: ELISA, biotin peptide on streptavidin plate. The method, boiled down: as §2
For assay [15], the target named is T10, hUCN1 (CT Biotin) (human, UniProt P55089 83-122, biotin at the C-terminus).
T10 construct: also called human UCN1 (CT biotin)
T10 peptide (looked up): T1 peptide (looked up)
The assay can be described thus: ELISA, biotin peptide on streptavidin plate. The procedure, abridged:
as §2

Assay [16] concerns the target T4, biotinylated CRH. The experiment in a line: Octet in-tandem, row = 1st mAb; competitor (2nd mAb) PR005660. The protocol: (§4) SA sensors (Fortebio, Cat #18-5019) were hydrated in running buffer for 10 mins.
Assay [17] deals with T4, biotinylated CRH. The assay can be described thus: Octet in-tandem, row = 1st mAb; competitor (2nd mAb) PR006669. Here is the method:
as §4

The target of assay [18] is T4, biotinylated CRH. The experiment in a line: Octet in-tandem, row = 1st mAb; competitor (2nd mAb) PR301777. Here is the method: as §4
Assay [19] deals with T4, biotinylated CRH. The assay can be described thus: Octet in-tandem, row = 1st mAb; competitor (2nd mAb) PR302334. Here is the method: as §4
For assay [20], the target named is T4, biotinylated CRH. The assay can be described thus: Octet in-tandem, row = 1st mAb; competitor (2nd mAb) PR303394. The protocol: as §4
The target of assay [21] is T4, biotinylated CRH. The experiment in a line: Octet in-tandem, row = 1st mAb; competitor (2nd mAb) PR302341-34. The protocol: as §4
The target of assay [22] is T11, corticotropin-releasing hormone (CRH) peptide (human and mouse, not fully specified).
T11 peptide: T4 peptide
The experiment in a line: cell-based or functional assay.

The target of assay [23] is T12, CRH (CT-Biotin) (human and mouse, biotin on the added C-terminal K (-K-Biotin)).
T12 construct: also called Peptide 4 (CRH-Biotin); C-terminally biotinylated corticotropin-releasing hormone
T12 peptide: T4 peptide
The experiment in a line: ELISA on streptavidin-captured CRH (CT biotin), OD450. Here is the method: as §3

Assay [24] deals with T13, CRH (NT-Biotin) (human and mouse, not fully specified; biotin at the N-terminus).
T13 construct: also called Biotin-CRH; N-terminally biotinylated corticotropin-releasing hormone
T13 peptide: T4 peptide
The experiment in a line: ELISA on streptavidin-captured CRH (NT biotin), OD450. Here is the method: as §3

Assay [25] deals with T12, CRH (CT-Biotin). The assay can be described thus: ELISA on streptavidin-captured CRH (CT biotin), OD450. The protocol:
as §3

For assay [26], the target named is T13, CRH (NT-Biotin). The experiment in a line: ELISA on streptavidin-captured CRH (NT biotin), OD450. Here is the method:
as §3

Assay [27] has as its target T12, CRH (CT-Biotin). The assay can be described thus: ELISA, C-terminally biotinylated CRH on streptavidin-coated plate. The protocol: as §3
Assay [28] deals with T13, CRH (NT-Biotin). The experiment in a line: ELISA, N-terminally biotinylated CRH on streptavidin-coated plate. The protocol:
as §3

B1: PR302341-55 (antibody, human IgG1, kappa, V domains shown)
VH: QVQLVQSGAEVKKPGASVKVSCKASGYTFTDYFMKWVRQAPGQRLEWMGVINPNNADIFYNQKFKGRVTITRDTSASTAYMELSSLRSEDTAVYYCARGTDRALFAYWGQGTLVTVSS
VL: DVVMTQSPLSLPVTLGQPASISCRSGQSIVHSDGNTYLEWYQQRPGQSPRLLIYKVSNRFSGVPDRFSGSGSGTDFTLKISRVEAEDLGVYYCFQGSHIPWTFGGGTKVEIKR
notes: Humanized, PTM-removed variant of PR302341
Consider B1, for which, in [1], the “potency on hUCN1-induced against CRH-induced hCRHR1 reporter activity” value was determined as 267 fold lower. The binding result in assay [2] and in [3] was “no binding (tested: 100 nM)” throughout.

B2: PR302309-18 (antibody, human IgG1, kappa, V domains shown)
VH: QVQLVQSGAEVKKPGASVKVSCKASGYTFTNYGMNWVRQAPGQRLEWMGWINTYTGEPIYTDDFKGRVTITRDTSASTAYMELSSLRSEDTAVYYCARSTMITTGGVFAYWGQGTLVTVSS
VL: B1 VL with G26S, S28T, I99V
notes: Humanized variant of PR302309
For the molecule B2, the Kd in [4] is under 0.001 nM. In addition, the koff in assay [4] was under 1e-07 s⁻¹. In assay [4], this molecule returned an on-rate constant (kon) of 126000 M⁻¹ s⁻¹. For the same molecule, it took 0.028 nM to reach a half-maximal effect in [5] (EC50). The “EC50 (read off the curve)” value in assay [6] was about 0.03 nM; in assay [7], about 0.03 nM; in [8] it was about 0.1 nM. Besides, the binding result in assay [9] and in assay [10] was “no binding (tested: 100 nM)” throughout.

B3: PR302309-8 (antibody, human IgG1, kappa, V domains shown)
VH: QIQLVQSGSELKKPGASVKVSCKASGYTFTNYGMNWVRQAPGQGLEWMGWINTYTGEPIYTDDFKGRFVFSLDTSVSTAYLQISSLKAEDTAVYYCSRSTMITTGGVFAYWGQGTLVTVSS
VL: B1 VL with G26S, S28T, I99V
notes: Humanized variant of PR302309
Regarding B3, the “CHO-CRE-hCRHR1 0.5 nM CRH IC50” value in assay [11] came to 1.7 nM. In assay [4], binding was characterised by a dissociation constant (Kd) of 0.513 nM. This molecule also returned a koff in assay [4] of 0.000136 s⁻¹. The kon in assay [4] was 266000 M⁻¹ s⁻¹. In addition, the EC50 in assay [12] is 0.025 nM; in assay [13] it was 0.029 nM; in assay [14], 0.126 nM; in [15] it was 1.88 nM; in assay [5], 0.025 nM. Moreover, the “% Inhibition” value in assay [16] came to 76%; in assay [17], 76%; in assay [18], 80%; in [19], 65%; in [20], 77%; in assay [21], 74%. The binding result in [9] and in assay [10] was “no binding (tested: 100 nM)” throughout.

B4: PR004290 (antibody, human IgG1, kappa, V domains shown)
VH: EVQLVESGGVLVQPGGSLRLSCAASGFTFSSYWMTWVRQAPGKGLEWVANIKQDGSEKYYVDSVKGRFTISRDNAKNSLFLQMNSLRAEDTAVYYCARTLIFDYWGQGTLVTVSS
VL: DIVMTQSPLSLPVTPGEPASISCRSSQSLLHSTGYNSLEWYLQKPGQSPQLLIYLGSNRASGVPDRFSGSGSGTDFTLKISRVEAEDVGIYYCMQTLQTPITFGQGTRLEIKR
notes: Expressed recombinantly with human IgG1 wildtype Fc; also called Hybridoma Clone 28b3; Series 1 mAb
Regarding B4, the “hCRHR1 Reporter IC50” value in assay [22] turned out to be 3.69 nM. For the same molecule, the “EC50 (read off the curve)” value was about 0.01 nM in [23], about 0.05 nM in [24], about 0.03 nM in assay [25] and about 0.01 nM in assay [26]. Moreover, the EC50 in assay [27] was found to be 0.032 nM; in assay [28], 0.029 nM.

The record behind these values is patent US20260042834A1 (HBM ALPHA THERAPEUTICS, published 2026).
